{"source": "patent US20250243243A1", "about": "(HONG KONG UNIVERSITY OF SCIENCE AND TECHNOLOGY, published 2025)", "binders": {"B1": {"name": "SURF4^ED-AA-Myc (receptor)", "chain": "GQNDLMGTAEDFADQFLRVTKQYLPHVARLCLISTFLEDGIRMWFQWSAQRAYIATTWNCGYLLASSFVFLNLLGQLTGCVLVLSRNFVQYACFGLFGIIALQTIAYSILWDLKFLMRNLALGGGLLLLLAESRSEGKSMFAGVPTMRESSPKQYMQLGGRVLLVLMFMTLLHFDASFFSIVQNIVGTALMILVAIGFKTKLAALTLVVWLFAINVYFNAFWTIPVYKPMHDFLKYDFFQTMSVIGGLLLVVALGPGGVSMDEKKKEW", "notes": "SURF4-3xMyc with E50, D53 and D56 changed to alanine; also called Myc-tagged SURF4^ED-AA; not shown: C-terminal 3xMyc tag"}, "B2": {"name": "SURF4 luminal peptides (SEQRDYIDTTWNC) (peptide)", "peptide": "SEQRDYIDTTWNC", "modifications": "not fully specified (residue 13)", "notes": "Immobilised on beads as bait; also called SURF4^49-61 peptides; SURF4 peptide"}, "B3": {"name": "GST-SURF4^49-60 (other)", "chain": "{GST}-SEQRDYIDTTWN", "modifications": "also: GST tag linker not given here", "notes": "Purified from E. coli; also called N-terminal GST-tagged SURF4^49-60; GST-tagged SURF4^49-60; not shown: glutathione S-transferase (GST) tag, N-terminal"}}, "key": {"[1]": {"target": "T1, ShhN^1-198-HA (mouse, UniProt Q62226 25-198)", "T1 construct": "also called ShhN-HA; not shown: C-terminal 3xHA tag", "T1 sequence (Q62226 25-198)": "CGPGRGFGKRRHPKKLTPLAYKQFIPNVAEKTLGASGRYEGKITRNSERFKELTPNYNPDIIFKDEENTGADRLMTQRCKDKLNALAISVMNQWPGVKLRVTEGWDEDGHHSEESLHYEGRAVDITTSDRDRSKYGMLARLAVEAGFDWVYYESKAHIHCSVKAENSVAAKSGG", "experiment": "quantification of the co-immunoprecipitation (n=3)", "excerpt": "FIG. 3D. […] FIG. 3E. […] FIG. 3F. […] FIG. 3G. […] FIG. 3O."}, "[2]": {"target": "T2, GST (UniProt P08515 1-218 = GST)", "T2 construct": "Control protein purified from E. coli; also called GST alone; purified GST", "T2 sequence (P08515 whole entry)": "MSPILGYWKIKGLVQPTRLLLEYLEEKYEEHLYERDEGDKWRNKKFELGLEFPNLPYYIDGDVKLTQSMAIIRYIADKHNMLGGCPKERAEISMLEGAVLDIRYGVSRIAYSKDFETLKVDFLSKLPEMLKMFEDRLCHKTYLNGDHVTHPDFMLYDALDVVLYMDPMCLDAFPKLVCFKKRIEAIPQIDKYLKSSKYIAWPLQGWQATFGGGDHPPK", "experiment": "pull-down on beads carrying peptides of the predicted first luminal loop of SURF4, purified prey, anti-GST immunoblot"}, "[3]": {"target": "T3, CW peptides (KRRHPKKC) (C-terminal cysteine added for coupling to thiopyridone-Sepharose 6B beads (pull-down))", "T3 construct": "CW motif of Shh (mouse residues 33-39, human 32-38) plus an added C-terminal Cys; On beads in the pull-downs, free in solution in ITC; also called Cardin-Weintraub peptide; synthetic CW peptides", "T3 peptide": "KRRHPKKC", "experiment": "ITC, 500 µM CW peptide injected into 50 µM GST-SURF4 (49-60), one set of sites model", "experimental": "We utilized a commercial isothermal titration calorimeter (PEAQ-ITC system, MicroCal, Malvern Panalytical, United Kingdom) to perform titration experiments. […] During each ITC experiment, 19 injections of CW peptide into the calorimetric cell were carried out while duration of each injection was 4 s and the time between the injections was 150 s. The volume of each injection was 2 μL and the stirring speed was maintained at 750 rpm. Control experiments such as peptide to buffer and buffer to protein titrations were also done to account for non-specific interactions and heat of dilution. The binding constant (Kd) was derived by fitting the data with one set of site model using the MicroCal PEAQ-ITC analysis software."}}, "note": "Where no end group is shown, it is not given here."}
{"binder": "B1", "values": [{"measurement": "binding result", "setting": "[1]", "value": "binds"}]}
{"binder": "B2", "values": [{"measurement": "binding result", "setting": "[2]", "value": "no binding"}]}
{"binder": "B3", "values": [{"measurement": "Kd", "setting": "[3]", "value": 2350, "unit": "nM"}]}
